Assay results taken from patent publication US20220010020A1 (Five Prime, published 2022).

B1: anti-FGFR2-IIIb antibody (afucosylated, humanized IgG1 monoclonal antibody), control sample incubated without hydrogen peroxide (antibody, V domains shown)
VH: QVQLVQSGAEVKKPGSSVKVSCKASGYIFTTYNVHWVRQAPGQGLEWIGSIYPDNGDTSYNQNFKGRATITADKSTSTAYMELSSLRSEDTAVYYCARGDFAYWGQGTLVTVSS
VL: DIQMTQSPSSLSASVGDRVTITCKASQGVSNDVAWYQQKPGKAPKLLIYSASYRYTGVPSRFSGSGSGTDFTFTISSLQPEDIATYYCQQHSTTPYTFGQGTKLEIKR
notes: also called αFGFR2b; Sample 1
B2: anti-FGFR2-IIIb antibody incubated with 1.0% hydrogen peroxide overnight at room temperature (force oxidized) (antibody, human IgG1, kappa, V domains shown)
VH: B1 VH
VL: B1 VL
notes: Same antibody as m1 after peroxide treatment; also called +1.0% H2O2; 1.0% H2O2
B3: anti-FGFR2-IIIb antibody incubated with 0.01% hydrogen peroxide overnight at room temperature (force oxidized) (antibody, human IgG1, kappa, V domains shown)
VH: B1 VH
VL: B1 VL
notes: Same antibody as m1 after peroxide treatment; also called +0.01% H2O2; 0.01% H2O2
B4: anti-FGFR2-IIIb antibody incubated with 0.1% hydrogen peroxide overnight at room temperature (force oxidized) (antibody, human IgG1, kappa, V domains shown)
VH: B1 VH
VL: B1 VL
notes: Same antibody as m1 after peroxide treatment; also called +0.1% H2O2; 0.1% H2O2

Target: T1, FGFR2-IIIb (fibroblast growth factor receptor 2 IIIb splice form) (human, UniProt P21802 22-377)
T1 construct: also called FGFR2b; KGFR
T1 chain: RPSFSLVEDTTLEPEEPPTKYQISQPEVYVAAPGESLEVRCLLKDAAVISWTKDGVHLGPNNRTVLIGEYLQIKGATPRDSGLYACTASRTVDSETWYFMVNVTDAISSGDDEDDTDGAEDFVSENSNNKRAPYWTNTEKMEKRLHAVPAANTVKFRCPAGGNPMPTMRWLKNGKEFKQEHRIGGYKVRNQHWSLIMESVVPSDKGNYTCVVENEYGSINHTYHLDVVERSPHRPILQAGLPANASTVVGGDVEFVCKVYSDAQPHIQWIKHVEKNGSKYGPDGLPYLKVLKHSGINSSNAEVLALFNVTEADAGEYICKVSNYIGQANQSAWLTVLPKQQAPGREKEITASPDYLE
Assay: ELISA potency of forced oxidation samples
B1 was tested, and the “Potency By ELISA” value was 84.
With B2 the “Potency By ELISA” value was 83.
For B3, the “Potency By ELISA” value was 102.
B4 was tested, and the “Potency By ELISA” value was 89.

Target: T1, FGFR2-IIIb (fibroblast growth factor …)
Assay: blocking ELISA (potency), forced oxidation study
For B1, the “% Potency (Assay 1), against Reference” value was 79% and the “% Potency (Assay 2), against Reference” value was 89%.
In the case of B2, the “% Potency (Assay 1), against Reference” value is reported as 73% and the “% Potency (Assay 2), against Reference” value is reported as 93%.
With B3 the “% Potency (Assay 1), against Reference” value was 98% and the “% Potency (Assay 2), against Reference” value was 106%.
With B4 the “% Potency (Assay 1), against Reference” value was 78% and the “% Potency (Assay 2), against Reference” value was 100%.

Target: T1, FGFR2-IIIb (fibroblast growth factor …)
Assay: blocking ELISA (potency), forced oxidation study; blocked ligand not named
Binder B1 has an IC50 of 0.0272 µg/mL.
B2 showed an IC50 of 0.0257 µg/mL.
B3 gave an IC50 of 0.0208 µg/mL.
B4 gave an IC50 of 0.0259 µg/mL.
